Assay results as given in paper PMC10219423, “Characterization of a New Thermostable and Organic Solution-Tolerant Lipase from Pseudomonas fluorescens and Its Application in the Enrichment of Polyunsaturated Fatty Acids” (International Journal of Molecular Sciences, 2023).

Tested on: CCCCCCCC(=O)Oc1ccc([N+](=O)[O-])cc1
Experiment: purified protein
Assay type: biochemical, Pseudomonas fluorescens
Details: Tris-HCl 50 mM, pH 8.0, 40 °C, ethanol and acetonitrile present, 0.01-2.0 mM substrate

Substance LipB (Pseudomonas fluorescens) has a Km of 810 µM.
